Reference: the RNAGym collection of RNA variant scans (doi:10.1073/pnas.2313332121)

B1: TPR t1 (parent)
chain: GACCAAUCUGCCCUCAGAGCUCGAGAACAUCUUCGGAUGCAGAGGAGGCAGGCUUCGGUGGCGCGAUAGCGCCAACGUCCUCAACCUCCAAUGCAUCCCACCACAUGAUGAUGCCUGAAGAGCCUUGGUUUUUUG

Variants of: B1
Experiment: polymerase ribozyme fitness, log enrichment relative to wild type (log ratio); higher = more active; in vitro selection for triplet polymerase activity
Summary of the method: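 In triplicate, a single round of in vitro selection was run on each mutant library, PCR-built and transcribed, covering one subunit of a heterodimeric triplet polymerase ribozyme. Frozen incubation at −7 °C followed annealing with a biotinylated primer, partner subunit and triplets, and extended constructs were then gel-excised, streptavidin-captured and taken through RT-PCR. Fitness is the logarithm of genotype enrichment over wild-type enrichment, from inverse-variance-weighted replicate averages of Illumina-sequenced inputs and outputs. […] only genotypes with ≥10 input reads and ≥1 read per output were kept.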

Variant | polymerase ribozyme fitness (log ratio)
GACCAAUCUGCCCUCAGUGCUCGAGAACAUCUUCGGAUGCAGAAGAGGCAGGCAUCGGUGGCGCGAUAGCGCCAACGUCCUCAACUUCCAAUGCAUCCCACCACAAGAUGAUGCCUGAAGAGCCUUGGUUUUUUG [A18U G44A U54A C86U U106A] | -5.25
GACCAAUCUGCCCUCAGUGCUCGAGAACAUCUUCGGAUGCAGAGGAGGUAGGCUUCGGUGGCGCGAUUGCGCCAACGUCCUCAACCUCCAAAGCAACCCACCACAUGAUCAUGCCUGAAGAGCCUUGGUUUUUUG [A18U C49U A68U U92A U96A G110C] | -7.53
GACCAAUCUGCCCUCAGUGCUCGAGAACAUCUUCGGAUGCAGAGGAGGCAGGCUUCGGUGGCGCGAUAGCGCCAACGUCCUCAACCUCCAAUGCAUCCCACCACAUGAUGAUUUCUGAAGAGCAUUGGUCUUUUG [A18U G113U C114U C124A U130C] | -2.93
GACCAAUCUGCCCUCAGUGCUCGAGAACAUCUUCGGAUGCAGAGGAGGCAGGCUUCGGUGGCGCGAUAGCGCCAACGUCCUCAACCUCCAAUGCAUCCCACCACAUGAUGAUGUCUGAAGAGCCUUGGUUUUUUG [A18U C114U] | -3.74
GACCAAUCUGCCCUCAGUGCUCGAGAACAUCUUCGGAUGCACAGGAGGCUGGCUUCGGUGGCGCGAUAGCGCCAACGUCCUCAACCUCCAAUGCAUCCCACCACAUGAUGAUGCCUGAAGAGCCUUGGUUUUUUG [A18U G42C A50U] | -3.92
GACCAAUCUGCCCUCAGUGCUCGAGAACAUCUUCGGAUGCAUAGGAGGCAGGCUUCGGUGGCGCGAUAGCGCCAACGUCCUCAACCUCCAAUGCAUCCCACCACAUGAUGAUGCCUGAAGAGCCUUGGUUUUUUG [A18U G42U] | -2.23
GACCAAUCUGCCCUCAGUGCUCGAGAACAUCUUCGGAUGCAGAGGAGGCAGGCUUCGGUGGCGCGAUAGUGCCAACGUCCUCAACCUCCAAUGCAUCCCACCACAUGAUGACGCCUGAAGAGCCUUGGUUUUUUG [A18U C70U U112C] | -1.2
GACCAAUCUGCCCUCAGUGCUCGAGAACAUCUUCGGAUGCAGAGCAGGCAGGCUUCCGUGGCGCGAUAUCGCCAACGUCCUCAACCUCCAAUGCAUCCCACCACAUGAUGAUGCCUGAAGAGCCUUGGUUUUUUG [A18U G45C G57C G69U] | -1.15
GACCAAUCUGCCCUCAGUGCUCGAGAACAUCUUCGGAUGCAGAGGAGGCAGGCUUCGGUGGAGCGAUAGCGCCAACGUCCUCAACCUCCAAUGCAUCCCACCACAUGAUGAUGCCUGAAGAGCCUUGGUUUUUUG [A18U C62A] | -4.11
GACCAAUCUGCCCUCAGUGCUCGAGAACAUCUUCGGAUGCAGAGGAGGCAGGCUUCGGUGGCGCGAUAGCACCAACGUCCUCAACCUCCAAUGCAUCCCACCACAUGAUGAUGCCUGAAGAGCCUUGGUUUUUUG [A18U G71A] | -2.85
GACCAAUCUGCCCUCAGUGCUCGAGAACAUCUUCGGAUGCAGAGGAGGCAGGCUUCGGUGGCGCGAUAGCGCCAACGUUCUCAACCUCCAAUGCAUCCCAGCACAUGAUGAUGCCUGAAGAGCCUUGGUUUUUUG [A18U C79U C101G] | -4.83
GACCAAUCUGCCCUCAGUGCUCGAGAACAUCUUCGGAUGCAUAGGAGGCAGGCUUCGGUGGCGCGAUAACGCCAACGUCCUCAACCUCCAAUGCAUCCCUCCACAUGAUGAUGACUGAAGAGCCUUGUUUUUUUG [A18U G42U G69A A100U C114A G128U] | -7.14
GACCAAUCUGCCCUCAGUGCUCGAGAACAUCUUCGGAUGCAGAGGAGGCAGGCUUCGGUGGCGCGAUACCGCCAACGUCCUCAAACUCGAAUGCAUCCCACCACAUGAUGAUGCCUGAAGAGCCUUGGUUUUUUG [A18U G69C C85A C89G] | -6.03
GACCAAUCUGCCCUCAGUGCUCGAGAACAUCUUCGGAUGCAGAGGAGGCAGGCUUCGGUGGCGCGAUAGCGCCAAAGUCCUCAACCUCCAAUCCAUCCCACCACAUGAUGAUGCCUGAAGAGCCUUGGUUUUUUG [A18U C76A G93C] | -4.09
GACCAAUCUGCCCUCAGUGCUCGAGAACAUCUUCGGAUGGAGAGGAGGCAGGCUUCGGUGGCGCGAUAGCGCCAACGUCCUCAACCUCCAAUGCAUCCCACCACAUGAUGAUGCCUGAAGAGCCUUGGUUUUUUG [A18U C40G] | -4.04
GACCAAUCUGCCCUCAGUGCUCGAGAACAUCUUCGGAUGCAGAGGAGGCUGGCUUCGGUGGCGCGAUAGCGCCAACGUCCUCAACCUCCAAUGCAUCCGCCCACAUGUUGAUGCCUGAAGAGCGUUGGUUUUUUG [A18U A50U C99G A100C A108U C124G] | -8.04
GACCAAUCUGCCCUCAGUGCUCGAGAACAUCUUCGGAUGCAGAGGAGGCAGGCUUCGGUGGCGCGAUAGCGCCAACGUCCUCAACCUCCAAUGCAUCCCACCACAUGAUGAUGCCUCAAGAGCCUUGGUUUUUUG [A18U G117C] | -4.12
GACCAAUCUGCCCUCAGUGCUCGAGAACAUCUUCGGAUUCAGAGGAGGCAGGCUUCGGUGUCGCGAUAGCGCCAACGUCCUCAACCUCCAAUGCAUUCCACCACAUGAUGAUGCCUGAAGAGCCUUGGUAUUUUG [A18U G39U G61U C97U U130A] | -4.49
GACCAAUCUGCCCUCAGUGCUCGAGAACAUCUUCGGAUGCAGAGGAGGCAGGCUUCGGUGGCACGAUAGCGCCAACGUCCUCAACCUCCAAUGCAUCCCACCACAUGAUUAUGCCUGAAGAGCCUUGGUUUUUUG [A18U G63A G110U] | -6.24
GACCAAUCUGCCCUCAGUGCUCGAGAACAUCUUCGGAUGCAGAGGAGGCAGGCUUCGGUGGCGCGAUGGCGCCAACGUCCACAACCUCCAAUGCAUCCCACCACAUGAUGAUGCCUGAAGAGUCUUGGUUUUUUG [A18U A68G U81A C123U] | -5.83
GACCAAUCUGCCCUCAGUGCUCGAGAACAUCUUCGUAUGCAGAGGAGGCAGGCUUCGGCGGCGCGAUAGCGCCAACGUCCUCAACCUCCAAUGCAUGCCACCACAUGAUGAUGCCUGAAGAGCCUUGGUUUUUUG [A18U G36U U59C C97G] | -4.79
